This passage reports Percent cleavage pH 7.2 and Percent cleavage pH 5 results from patent publication US20140356376.

In data set [1] the target is thioFAB 4497 MP-LAFAA-QSY7.
Data set [2] concerns the target thio-S4497 HC v1-MP-LAFG-PABC-(piperazinoBOR) AAC-193.
For data set [3], the target named is thioFAB 4497 MP-LAFGA-QSY7.

B1: staphopain A (protein)
chain: YNEQYVNKLENFKIRETQGNNGWCAGYTMSALLNATYNTNKYHAEAVMRFLHPNLQGQQFQFTGLTPREMIYFEQTQGRSPQLLNRMTTYNEVDNLTKNNKGIAILGSRVESRNGMHAGHAMAVVGNAKLNNGQEVIIIWNPWDNGFMTQDAKNNVIPVSNGDHYQWYSSIYGY
In the case of B1, the Percent cleavage pH 7.2 in data set [1] worked out at 23%; in data set [2] it was 46%; in data set [3], 38%. This protein also had a Percent cleavage pH 5 in data set [2] of 100%.
